Fewer inactive variants are shown than the library holds.
Legend:
biotinyl-Val-oxazolone = experiment: self-aminoacylation, catalytic enhancement (BVO) (fold over background); higher = more active; k-Seq, kA / k0A0; sequences stand for … in GGGAAUGGAUCCACAUCUACGAAUUC…UUCACUGCAGACUUGACGAAGCUG
Method in brief: (§1)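 Mutagenized RNA pools (0.43 μM; 21-nt variable region) were treated with 2–1250 μM of each biotinyl-aminoacyl-oxazolone. Conditions were 50 μL HEPES/NaCl/KCl/MgCl2/CaCl2 buffer, 5% acetonitrile, pH 6.9–7.0, room temperature, 90 minutes. Catalytic enhancement, the median kA relative to the uncatalyzed rate, was derived from streptavidin capture, qPCR and Illumina sequencing.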

biotinyl-Phe-oxazolone = experiment: self-aminoacylation, catalytic enhancement (BFO) (fold over background); higher = more active; k-Seq, kA / k0A0; sequences stand for … in GGGAAUGGAUCCACAUCUACGAAUUC…UUCACUGCAGACUUGACGAAGCUG
Method in brief: as §1

biotinyl-Ile-oxazolone = experiment: self-aminoacylation, catalytic enhancement (BIO) (fold over background); higher = more active; k-Seq, kA / k0A0; sequences stand for … in GGGAAUGGAUCCACAUCUACGAAUUC…UUCACUGCAGACUUGACGAAGCUG
Method in brief: as §1

biotinyl-Met-oxazolone = experiment: self-aminoacylation, catalytic enhancement (BMO) (fold over background); higher = more active; k-Seq, kA / k0A0; sequences stand for … in GGGAAUGGAUCCACAUCUACGAAUUC…UUCACUGCAGACUUGACGAAGCUG
Method in brief: as §1

biotinyl-Leu-oxazolone = experiment: self-aminoacylation, catalytic enhancement (BLO) (fold over background); higher = more active; k-Seq, kA / k0A0; sequences stand for … in GGGAAUGGAUCCACAUCUACGAAUUC…UUCACUGCAGACUUGACGAAGCUG
Method in brief: as §1

biotinyl-Trp-oxazolone = experiment: self-aminoacylation, catalytic enhancement (BWO) (fold over background); higher = more active; k-Seq, kA / k0A0; sequences stand for … in GGGAAUGGAUCCACAUCUACGAAUUC…UUCACUGCAGACUUGACGAAGCUG
Method in brief: as §1

Row | Sequence | self-aminoacylation (biotinyl-Val-oxazolone) | self-aminoacylation (biotinyl-Phe-oxazolone) | self-aminoacylation (biotinyl-Ile-oxazolone) | self-aminoacylation (biotinyl-Met-oxazolone) | self-aminoacylation (biotinyl-Leu-oxazolone) | self-aminoacylation (biotinyl-Trp-oxazolone)
1 | AAGUUUGCUGAUAGUCGCCAG [Fam3.1 aminoacylation ribozyme variant] | 1.53 | 4.26 | 1.38 | 1.41 | 2.22 | 1.44
2 | AAGUUUGCUGAUAGUCGUAAG [Fam3.1 aminoacylation ribozyme variant] | 0.93 | 0.944 | 0.854 | 0.951 | 0.674 | 0.823
3 | AAGUUUGCUGAUUGUCGCAAG [Fam3.1 aminoacylation ribozyme variant] | 1.02 | 1.02 | 0.948 | 1.09 | 1.11 | 1.37
4 | AAGUUUGCUUAAAGUCGCAAG [Fam3.1 aminoacylation ribozyme variant] | 0.897 | 1.07 | 0.972 | 0.754 | 0.896 | 1.1
5 | AAGUUUGCUUAGAGUCGCAAG [Fam3.1 aminoacylation ribozyme variant] | 0.785 | 0.969 | 0.725 | 0.757 | 0.592 | 1
6 | AAGUUUGCUUAUAGUCGCCAG [Fam3.1 aminoacylation ribozyme variant] | 0.955 | 0.665 | 1.08 | 0.883 | 0.933 | 1.08
7 | AAGUUUGCUUAUAGUCGCUAG [Fam3.1 aminoacylation ribozyme variant] | 0.646 | 1 | 0.884 | 0.705 | 0.628 | 0.61
8 | AAGUUUGCUUAUAGUCUCAAG [Fam3.1 aminoacylation ribozyme variant] | 0.888 | 1.41 | 1.05 | 1.08 | 0.902 | 0.69
9 | AAGUUUGGCAAUAGUCGCAAG [Fam3.1 aminoacylation ribozyme variant] | 1.42 | 1.92 | 1.79 | 1.49 | 1.4 | 1.49
10 | AAGUUUGGUAAUAGUCGCAAG [Fam3.1 aminoacylation ribozyme variant] | 1.19 | 2.13 | 1.32 | 1.22 | 1.25 | 1.38
11 | AAGUUUGGUAAUAGUCGCACG [Fam3.1 aminoacylation ribozyme variant] | 1.11 | 1.98 | 1.18 | 1.07 | 1.45 | 1.09
12 | AAGUUUGGUAAUAGUCGUAAG [Fam3.1 aminoacylation ribozyme variant] | 0.916 | 1.44 | 1.04 | 0.961 | 0.801 | 1.11
13 | AAGUUUGUUAAUAGGCGCAAG [Fam3.1 aminoacylation ribozyme variant] | 0.652 | 1.05 | 0.767 | 0.799 | 0.556 | 0.763
14 | AAGUUUGUUAAUAGUCGUAAG [Fam3.1 aminoacylation ribozyme variant] | 0.808 | 1.38 | 0.929 | 0.893 | 0.902 | 0.911
15 | AAGUUUGUUGAUAGUCGCAAG [Fam3.1 aminoacylation ribozyme variant] | 1.09 | 1.36 | 1.14 | 1.09 | 1.09 | 1.19
16 | AAGUUUGUUUAUAGUCGCAAG [Fam3.1 aminoacylation ribozyme variant] | 1.24 | 1.47 | 1.3 | 1.34 | 1.26 | 1.52
17 | AAGUUUUCUAAGAGUCGCAAG [Fam3.1 aminoacylation ribozyme variant] | 1.62 | 3.16 | 1.65 | 1.32 | 1.62 | 1.51
18 | AAGUUUUCUAAUAGUCGCAAA [Fam3.1 aminoacylation ribozyme variant] | 1.54 | 3.41 | 1.93 | 1.54 | 1.41 | 2.46
19 | AAUACCCGGGUCAUCGAGUGA [Fam2.1 aminoacylation ribozyme variant] | 3.64 | 34.7 | 3.72 | 5.22 | 6.7 | 7.23
20 | AAUACCCUGGGCAUCGAGUGA [Fam2.1 aminoacylation ribozyme variant] | 2.29 | 8.76 | 1.8 | 3.75 | 3.79 | 3.44
21 | AAUACCCUGGUCAUAGAGUGA [Fam2.1 aminoacylation ribozyme variant] | 2.3 | 10.7 | 2.68 | 4.64 | 4.68 | 5.58
22 | AAUACCCUGGUCAUCGAAUGA [Fam2.1 aminoacylation ribozyme variant] | 0.781 | 0.529 | 0.855 | 0.76 | 0.724 | 1.17
23 | AAUCACCUAGCUCAUCGGGUG [Fam2.2 aminoacylation ribozyme variant] | 3.17 | 17.7 | 2.33 | 2.82 | 2.31 | 3.68
24 | AAUCACCUAGGACAUCGGGUG [Fam2.2 aminoacylation ribozyme variant] | 3.32 | 19.1 | 3.91 | 4.09 | 3.27 | 5.94
25 | AAUCACCUAGGUCAUCGGGGG [Fam2.2 aminoacylation ribozyme variant] | 2.77 | 10.6 | 2.91 | 3.21 | 3.66 | 3.96
26 | AAUCACCUAGGUCAUCGGGUA [Fam2.2 aminoacylation ribozyme variant] | 7.24 | 52.7 | 7.76 | 12 | 14.7 | 10.5

Reference: the supplement of paper PMC9233669
